From the PETadex activity labels (doi:10.1038/s41467-023-40233-w)

substrate: pcPET (post-consumer); assay: Proxy for plastic degradation [Released monomer concentration (HPLC/LC-MS) (TPA+MHET+BHET)]; conditions: pH 9; 40 °C; 24 h

| Protein | Proxy for plastic degradation |
| --- | --- |
| unnamed (protein) MLSFLRSTGRPERRRASLPALLLFTAALVASGLTAAPAAQAADNPYQRGPDPTNASIEAATGPFAVGTQPIVGASGFGGGQIYYPTDTSQTYGAVVIVPGFISVWAQLNWLGPRLASQGFVVIGIETSTITDLPDPRGDQALAALDWATTRSPVASRIDRTRLAAAGWSMGGGGLRRAALQRPSLKAIVGMAPWNGERNWSAVTVPTLFFGGSSDAVASPNDHAKPFYNSITRAEKDYIELRNADHFFPTSANTTMAKYFISWLKRWVDNDTRYTQFLCPGPSTGLFAPVSASMNTCPF | 990 µM |
| unnamed (protein) MLSFLRSTGRPERRRASLPALLLFTAALVASGLTAAPAAQAADNPYQRGPDPTNASIEAATGPFAVGTQPIVGASGFGGGQIYYPTDTSQTYGAVVIVPGFISVWAQLNWLGPRLASQGFVVIGIETSVITDLPDPRGDQALAALDWATTRSPVASRIDRTRLAAAGWSMGGGGLRRAALQRPSLKAIVGMAPWNTERNWSAVTVPTLFFGGSSDAVASPNDHAKPFYNSITRAEKDYIELRNADHFFPTSANTTMAKYFISWLKRWVDNDTRYTQFLCPGPSTGLFAPVSASMNTCPF | 840 µM |
| unnamed (protein) MLSFLRSTGRPERRRASLPALLLFTAALVASGLTAAPAAQAADNPYQRGPDPTNASIEAATGPFAVGTQPIVGASGFGGGQIYYPTDTSQTYGAVVIVPGFISVWAQLNWLGPRLASQGFVVIGIETSVITDLPDPRGDQALAALDWATTRSPVASRIDRTRLAAAGWSMGGGGLRRAALQRPSLKAIVGMAPWNGERNWSATTVPTLFFGGSSDAVASPNDHAKPFYNSITRAEKDYIELRNADHFFPTSANTTMAKYFISWLKRWVDNDTRYTQFLCPGPSTGLFAPVSASMNTCPF | 170 µM |
| unnamed (protein) MLSFLRSTGRPERRRASLPALLLFTAALVASGLTAAPAAQAADNPYQRGPDPTNASIEAATGPFAVGTQPIVGASGFGGGQIYYPTDTSQTYGAVVIVPGFISVWAQLNWLGPRLASQGFVVIGIETSVITDLPDPRGDQALAALDWATTRSPVASRIDRTRLAAAGWSMGGGGLRRAACQRPSLKAIVGMAPWNGERNWSCVTVPTLFFGGSSDAVASPNDHAKPFYNSITRAEKDYIELRNADHFFPTSANTTMAKYFISWLKRWVDNDTRYTQFLCPGPSTGLFAPVSASMNTCPF | 850 µM |
| unnamed (protein) MLSFLRSTGRPERRRASLPALLLFTAALVASGLTAAPAAQAADNPYQRGPDPTNASIEAATGPFAVGTQPIVGASGFGGGQIYYPTDTSQTYGAVVIVPGFISVWAQLNWLGPRLASQGFVVIGIETSVITDLPDPRGDQALAALDWATTRSPVASRIDRTRLAAAGHSMGGGGLRRAALQRPSLKAIVGMAPWNGERNWSAVTVPTLFFGGSSDAVASPNDHAKPFYNSITRAEKDYIELRNADHFFPTSANTTMAKYFISWLKRWVDNDTRYTQFLCPGPSTGLFAPVSASMNTCPF | 220 µM |
| unnamed (protein) MLSFLRSTGRPERRRASLPALLLFTAALVASGLTAAPAAQAADNPYQRGPDPTNASIEAATGPFAVGTQPIVGASGFGGGQIYYPTDTSQTYGAVVIVPGFISVWAQLNWLGPRLASQGFVVIGIETSVITDLPDPRGDQALAALDWATTASPVASRIDRTRLAAAGWSMGGGGLRRAALQRPSLKAIVGMAPWNGERNWSAVTVPTLFFGGSSDAVASPNDHAKPFYNSITRAEKDYIELRNADHFFPTSANTTMAKYFISWLKRWVDNDTRYTQFLCPGPSTGLFAPVSASMNTCPF | 600 µM |
| unnamed (protein) MLSFLRSTGRPERRRASLPALLLFTAALVASGLTAAPAAQAADNPYQRGPDPTNASIEAATGPFAVGTQPIVGASGFGGGQIYYPTDTSQTYGAVVIVPGFISVWAQLAWLGPRLASQGFVVIGIETSTITDLPDPRGDQALAALDWATTRSPVRSRIDRTRLAAAGWSMGGGGLRRAACQRPSLKAIVGMAPWNTEKNWSCVTVPTLFFGGSSDAVASPNDHAKPFYNSITRAEKDYIELCNADHFFPTSANTTMAKYFISWLKRWVDNDTRYTQFLCPGPSTGLFAPVCASMNTCPF | 1370 µM |
| unnamed (protein) MLSFLRSTGRPERRRASLPALLLFTAALVASGLTAAPAAQAADNPYQRGPDPTNASIEAATGPFAVGTQPIVGASGFGGGQIYYPTDTSQTYGAVVIVPGFISVWAQLNWLGPRLASQGFVVIGIETSVITDLPDPRGDQALAALDWATTRSPVASRIDRTRLAAAGWSMGGGGLRRAALQRPSLKAIVGMAPWNGERNWSAVTVPTLFFGGSSDAVASPNDHAKPFYNSITRAEKDYIELRNADHFFPTSANTTMSKYFISWLKRWVDNDTRYTQFLCPGPSTGLFAPVSASMNTCPF | 530 µM |

same assay, conditions: pH 9; 60 °C; 6 h

| Protein | Proxy for plastic degradation |
| --- | --- |
| unnamed (protein) MLSFLRSTGRPERRRASLPALLLFTAALVASGLTAAPAAQAADNPYQRGPDPTNASIEAATGPFAVGTQPIVGASGFGGGQIYYPTDTSQTYGAVVIVPGFISVWAQLAWLGPRLASQGFVVIGIETSTITDLPDPRGDQALAALDWATTRSPVRSRIDRTRLAAAGWSMGGGGLRRAACQRPSLKAIVGMAPWNTEKNWSCVTVPTLFFGGSSDAVASPNDHAKPFYNSITRAEKDYIELCNADHFFPTSANTTMAKYFISWLKRWVDNDTRYTQFLCPGPSTGLFAPVCASMNTCPF | 1860 µM |
